Consider 5 molecules from US20230374147A1 (HUMMINGBIRD BIOSCIENCE PTE, published 2023).

For test [1], the target named is T1, Human HER3-His (Sino Biological, 10201-H08H) (human, UniProt P21860 20-643).
T1 construct: Specificity control; also called Human HERS-His
In words: ELISA, coated His-tagged antigen.

For test [2], the target named is T2, His-tagged cynomolgous macaque BCMA (Acro Biosystems, BCA-C52H7) (cynomolgus macaque, UniProt Q02223 1-54 (human entry)).
T2 construct: Bought protein; also called cyno BCMA; CyBCMA; not shown: His tag
Briefly: ELISA, coated Cyno BCMA-His. In general terms: An ELISA detects its analyte on a solid surface through an enzyme-linked reagent.

In test [3] the target is T3, Cyno TACI-His (Sino Biological, 90976-C08H) (cynomolgus macaque, UniProt G7PTR7 1-165).
T3 construct: Bought protein; also called cynomolgous macaque TACI; CyTACI
T3 sequence: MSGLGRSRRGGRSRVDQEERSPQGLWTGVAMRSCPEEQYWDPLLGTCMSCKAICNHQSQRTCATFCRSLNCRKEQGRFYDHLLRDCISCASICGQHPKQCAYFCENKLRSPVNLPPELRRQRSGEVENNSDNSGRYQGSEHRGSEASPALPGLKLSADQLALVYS
In words: ELISA, coated Cyno TACI-His.

In test [4] the target is T4, Human BCMA-His (Sino Biological, 10620-H08H) (human, UniProt Q02223 1-54).
T4 construct: not shown: His tag
T4 sequence: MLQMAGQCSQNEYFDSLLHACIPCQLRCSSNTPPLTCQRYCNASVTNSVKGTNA
Briefly: ELISA, coated Human BCMA-His.

In test [5] the target is T5, recombinant his-tagged human TACI (Sinobiological cat #11937-H08H) (human, UniProt O14836 1-165).
T5 construct: Bought protein; also called Human TACI-His; huTACI; not shown: His tag
T5 sequence: T3 sequence with S21F, A52T, T64A, N70S, R77K, S139L, L160V
In words: ELISA, coated Human TACI-His.

Test [6] addresses T6, human BCMA expressed on cells (human, UniProt Q02223 1-184).
T6 construct: the cell line is named under assay; also called wildtype human BCMA
T6 sequence: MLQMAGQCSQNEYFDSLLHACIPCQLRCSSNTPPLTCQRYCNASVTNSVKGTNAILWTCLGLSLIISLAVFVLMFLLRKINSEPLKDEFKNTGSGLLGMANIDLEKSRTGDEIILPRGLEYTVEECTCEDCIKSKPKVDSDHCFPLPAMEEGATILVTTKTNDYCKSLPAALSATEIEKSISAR
Briefly: flow cytometry, H929 cells (BCMA+). (A flow cytometer gives signals particle by particle.)

Test [7] concerns the target T6, human BCMA expressed on cells. Briefly: flow cytometry, fixed RPMI 8226 cells (BCMA+, TACI+: the cells carry both targets).
The target in test [8] is T7, His-tagged human BCMA (Acro Biosystems, Cat. #BCA-H522y) (human, UniProt Q02223 1-54).
T7 construct: also called huBCMA; P1; not shown: His tag
T7 sequence: T4 sequence
Briefly: HDX-MS of the 1:1 complex against free BCMA.

Test [9] has as its target T7, His-tagged human BCMA (Acro Biosystems, …). In words: ELISA, coated His-tagged human BCMA.
Test [10] has as its target T5, recombinant his-tagged human TACI …. In words: ELISA, coated His-tagged human TACI.
The target of test [11] is T7, His-tagged human BCMA (Acro Biosystems, …). Briefly: BLI, His-tagged human BCMA on HIS1K tip. (In general: In BLI a coated tip is dipped into the sample, and binding shifts an interference pattern.)
The target of test [12] is T8, His-tagged mouse BCMA (Acro Biosystems, BCA-M52H3) (mouse, UniProt O88472 1-49).
T8 construct: Bought protein; not shown: His tag
T8 chain: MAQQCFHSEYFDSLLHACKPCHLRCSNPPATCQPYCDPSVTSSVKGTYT
In words: BLI, His-tagged mouse BCMA on HIS1K tip.

Test [13] concerns the target T7, His-tagged human BCMA (Acro Biosystems, …). Briefly: BLI, His-tagged human BCMA on HIS1K tip; R2 0.9908.
Test [14] deals with T6, human BCMA expressed on cells. In words: flow cytometry, HEK293 cells stably expressing human BCMA.
Test [15] addresses T7, His-tagged human BCMA (Acro Biosystems, …). In words: BLI, His-tagged human BCMA on HIS1K tip, no APRIL; R2 0.9908.
The target in test [16] is T9, cynomolgous macaque BCMA expressed on CHOK1 cells.
T9 construct: also called cyno BCMA on cells
In words: flow cytometry, CHOK1 cells transiently expressing cynomolgus BCMA.

The target of test [17] is T8, His-tagged mouse BCMA (Acro Biosystems, …). Briefly: BLI, His-tagged mouse BCMA on HIS1K tip; R2 0.2661, below the filing's cut-off of 0.9.
In test [18] the target is T5, recombinant his-tagged human TACI …. In words: ELISA, coated His-tagged human TACI. This is another data set of the same source.
Test [19] deals with T2, His-tagged cynomolgous macaque BCMA …. Briefly: ELISA, coated His-tagged cynomolgus BCMA.
For test [20] the target is unchanged. Briefly: BLI, His-tagged cynomolgus BCMA on HIS1K tip.
The target of test [21] is T6, human BCMA expressed on cells. Briefly: flow cytometry, H929 cells (BCMA-expressing).
For test [22], the target named is T7, His-tagged human BCMA (Acro Biosystems, …). Briefly: BLI, His-tagged human BCMA on HIS1K tip; R2 0.9928.
For test [23], the target named is T2, His-tagged cynomolgous macaque BCMA …. In words: BLI, His-tagged cynomolgus BCMA on HIS1K tip; R2 0.9552.
The target in test [24] is T7, His-tagged human BCMA (Acro Biosystems, …). Briefly: BLI, His-tagged human BCMA on HIS1K tip, no APRIL; R2 0.9928.
Test [25] deals with T9, cynomolgous macaque BCMA expressed on …. Briefly: flow cytometry, CHOK1 cells transiently expressing cynomolgus BCMA. The source holds these as a separate data set.
The target of test [26] is T7, His-tagged human BCMA (Acro Biosystems, …). In words: BLI, His-tagged human BCMA on HIS1K tip; R2 0.9939.
Test [27] has as its target T2, His-tagged cynomolgous macaque BCMA …. In words: BLI, His-tagged cynomolgus BCMA on HIS1K tip; R2 0.9296.
For test [28], the target named is T7, His-tagged human BCMA (Acro Biosystems, …). In words: BLI, His-tagged human BCMA on HIS1K tip, no APRIL; R2 0.9939.
Test [29] has as its target T10, BCMA:APRIL 1:1 (human, UniProt Q02223;O75888).
T10 construct: His-tagged recombinant;recombinant; also called human BCMA after incubation with human APRIL
T10 sequence (receptor, looked up): T4 sequence
T10 sequence (ligand, looked up): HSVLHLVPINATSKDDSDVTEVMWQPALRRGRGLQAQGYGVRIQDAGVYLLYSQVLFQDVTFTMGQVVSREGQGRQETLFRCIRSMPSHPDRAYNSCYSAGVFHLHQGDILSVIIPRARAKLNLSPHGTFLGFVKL
Briefly: BLI, His-tagged human BCMA on tip, then human APRIL 3000 nM, then IgG; R2 0.9805.

Residue numbers refer to the chain shown, from its start. Read-outs that look alike come from different tables or passages of the source. Bounds are passed on as bounds.

B1: 1C8-6A3 hIgG1 (antibody, V domains shown)
VH: QVQLVQSGAEVKKPGASVKVSCKASGYTFTNYVMHWVKQKPGQGLEWMGYILPYNDGTKYAQKFQGKVTMTSDKSTSTVYMELSSLTSEDTAVYYCARYDYEGSFDYWGQGTLVTVSS
VL: DIQMTQSPSSLSASVGDRVTITCRASQDISNYLNWYQQKPGKAPKLLMCYTSRLHSGVPSRFSGSGSGTDFTLTISSLEQEDFATYYCQQGNTFPPTFGGGTKVEIKR
notes: also called [94]; hu1C8
The term EC50 denotes the midpoint of the concentration-response curve. B1: the binding result in test [1] is given as “no binding (tested: 3 µg/ml (highest concentration))”; in test [2] it was “binds”. Further, the EC50 in test [3] was 0.028 nM; in test [4], 0.005 nM; in test [5], 1.32 nM; in test [6], 0.111 nM; in test [7], 0.238 nM.

B2: 1C8-402 hIgG1 (LALA) (antibody)
heavy: not shown
light: DIQMTQSPSSLSASVGDRVTITCRASQDISNYLSWYQQKPGKAPKLLMRYTSRLHSGVPSRFSGSGSGTDFTLTISSLEQEDFATYYCQQGNLFPPTFGGGTKVEIKRTVAAPSVFIFPPSDEQLKSGTASVVCLLNNFYPREAKVQWKVDNALQSGNSQESVTEQDSKDSTYSLSSTLTLSKADYEKHKVYACEVTHQGLSSPVTKSFNRGEC
notes: also called S1
In the case of B2, in [8], the binding result is listed as “binds”.

B3: 539-SP2-H3 hIgG1 (antibody, V domains shown)
VH: EVQLQQSGPELVKPGASVKMSCKASGYTFTSYVIHWVKQKPGQGLEWIGYVLPYNDVIKYNEKFKGKATLTSDKSSSTAYMDLSSLTSEDSAVYYCARWGDFDEGIWFPYWGQGTLVTVSA
VL: DVLMTQTPLSLPVSLGDHASVSCRSSQSIVHTDGNTYLEWYLQKPGQSPKLLIYKVSNRFSGVPDRFSGSGSGTDFTLKISRVEAEDLGVYYCFQGSHVPWTFGGGTKLEIKR
notes: Human-mouse chimeric antibody, human IgG1 format
As usually defined, the EC50 (read off the curve) is the concentration that produces a half-maximal response. A word on the Kd: it is the constant that tells how readily two partners part at equilibrium. As for B3, the “EC50 (read off the curve)” value in [9] is about 0.01 µg/mL; in test [10] it was about 0.7 µg/mL; in test [14], about 0.06 µg/mL. For the same molecule, in [11], the “Human BCMA response” value was 2.36. Also, the “Mouse BCMA response” value in test [12] worked out at 0.29. The Kd in [13] was under 0.001 nM; in [15] it was under 0.001 nM; in test [17], 7.25 nM. For the same molecule, the binding result in [16] is “binds”.

B4: 552-LN2-E6 hIgG1 (antibody, V domains shown)
VH: QIQLVQSGPELKKPGETVKISCMASGYTFTDYSVRWVKQAPGKGLEWMGWINTETGEPTYADDFKGRFAFSLETSASTAYLQINNLKNEDTATYFCAISYYYALDYWGHGTSVTVSS
VL: DIVLTQSPASLTVSLGQRATISCRASKSVSTSVYSFLHWYQQKPGQPPKLLIYLASNLESGVPARFSGSGSGTDFTLNIHPVEEEDAATYYCQHSRELPRTFGGGTKLEIKR
notes: Human-mouse chimeric antibody, human IgG1 format; also called [8]
Turning to B4, the binding result is on record as “no binding (tested: 10 ug/ml)” in test [18] and “binds” in [25]. Besides, the “Human BCMA response” value in [11] is 2.37. In addition, the “EC50 (read off the curve)” value is about 0.08 µg/mL in test [19] and about 0.3 µg/mL in [21]. Besides, the “Cyno BCMA response” value in test [20] is 1.55. The Kd in [22] is under 0.001 nM; in [23], 38.5 nM; in test [24], under 0.001 nM.

B5: 552-LN1-F4 hIgG1 (antibody, V domains shown)
VH: B4 VH with D62H, N88D, A92S
VL: B4 VL with V33G, S35N, V62A
notes: Human-mouse chimeric antibody, human IgG1 format; also called [7]
On to B5, for which the binding result in test [18] is given as “no binding (tested: 10 ug/ml)”; in test [25], “binds”. In addition, the “Human BCMA response” value in test [11] was 2.33. Moreover, the “Cyno BCMA response” value in test [20] came out at 0.918. The “EC50 (read off the curve)” value in [21] was about 0.2 µg/mL. Also, the Kd is under 0.001 nM in [26], 71 nM in test [27], under 0.001 nM in test [28] and 9.61 nM in test [29].
